Measurements taken from article doi:10.1101/219642 (bioRxiv, 2017).

B1: GST fusion protein containing only the Habc domain (1-146) of Stx3 (domain or fragment)
chain: MKDRLEQLKAKQLTQDDDTDEVEIAIDNTAFMDEFFSEIEETRLNIDKISEHVEEAKKLYSIILSAPIPEPKTKDDLEQLTTEIKKRANNVRNKLKSMEKHIEEDEVRSSADLRIRKSQHSVLSRKFVEVMTKYNEAQVDFRERSK
B2: GST fusion protein of the constitutively open mutant of the cytoplasmic region of Stx3 (L165A/E166A) (domain or fragment)
chain: MKDRLEQLKAKQLTQDDDTDEVEIAIDNTAFMDEFFSEIEETRLNIDKISEHVEEAKKLYSIILSAPIPEPKTKDDLEQLTTEIKKRANNVRNKLKSMEKHIEEDEVRSSADLRIRKSQHSVLSRKFVEVMTKYNEAQVDFRERSKGRIQRQLEITGKKTTDEEAAEMLESGNPAIFTSGIIDSQISKQALSEIEGRHKDIVRLESSIKELHDMFMDIAMLVENQGEMLDNIELNVMHTVDHVEKARDETKRAMKYQGQARKKLI

Legend:
[1] = biological target: ubiquitin on ubiquitin-coated agarose beads (UniProt P0CG47 1-76, coupled to agarose beads); test: pull-down
[2] = biological target: Purified bovine ubiquitin (bovine, UniProt P0CG53 1-76); test: SPR

| Binder | binding result [1] | Kd [2] [mM] |
| --- | --- | --- |
| B1 | binds | 1.36 |
| B2 | binds | – |
